Biological target: T1, LgTrip 3092 (SEQ ID NO: 19)
T1 construct: also called LgTrip 3092 His; ATG 3092
Assay: tripartite luminescence complementation (with pep86 as third part)

**Q.** Does GSMLFRVTINS [SmTrip9 pep245] bind?
**A.** binds

Source: US20200270586A1 (PROMEGA, published 2020)
